Source: the Human Domainome abundance scans (Beltran et al. 2025)
± gives the uncertainty stated by the source.

B1: Protein C-ets-1, residues 55 to 135; numbered along this chain, P14921 (parent)
chain: GFTKEQQRLGIPKDPRQWTETHVRDWVMWAVNEFSLKGVDFQKFCMNGAALCALGKDCFLELAPDFVGDILWEHLEILQKE

Variants of: B1
Assay: abundance fitness (aPCA) (normalised: wild type 0, dead -1); higher = more abundant; growth selection in yeast, the domain comes from the species named
Conditions: Homo sapiens

| Variant | abundance fitness |
| --- | --- |
| L78I | -0.098 ± 0.078 |
| L78Y | -0.463 ± 0.091 |
| L78G | -0.566 ± 0.04 |
| H22N | 0.023 ± 0.11 |
| H22W | -0.904 ± 0.1 |
| H22D | -0.047 ± 0.066 |
| H22M | -0.18 ± 0.034 |
| H22E | -0.062 ± 0.057 |
| A53I | -0.452 ± 0.075 |
| A53G | -0.028 ± 0.023 |
| D25F | -0.124 ± 0.055 |
| D25V | -0.061 ± 0.026 |
| D25L | 0.016 ± 0.022 |
| D25W | -0.05 ± 0.045 |
| D25I | -0.033 ± 0.053 |
| D25M | -0.061 ± 0.034 |
| V39S | -0.624 ± 0.052 |
| V39N | -0.755 ± 0.22 |
| V39L | -0.141 ± 0.042 |
| V39H | -0.537 ± 0.13 |
| V39M | -0.267 ± 0.065 |

| Variant | abundance fitness |
| --- | --- |
| V39Y | -0.688 ± 0.11 |
| W29S | -0.395 ± 0.034 |
| W29A | -0.415 ± 0.036 |
| T3F | -0.029 ± 0.084 |
| T3G | -0.042 ± 0.041 |
| T3Y | -0.206 ± 0.1 |
| T3V | -0.063 ± 0.041 |
| T3W | -0.031 ± 0.075 |
| T3P | -0.177 ± 0.045 |
| L62F | -0.298 ± 0.062 |
| L62N | -0.419 ± 0.12 |
| L62S | -0.401 ± 0.048 |
| L62I | -0.049 ± 0.094 |
| L62A | -0.434 ± 0.047 |
| L60G | -0.1 ± 0.029 |
| L60W | -0.43 ± 0.057 |
| L60F | -0.087 ± 0.066 |
| L60N | -0.117 ± 0.093 |
| Q17W | -0.148 ± 0.051 |
| Q17A | 0.013 ± 0.029 |
| Q17C | -0.034 ± 0.07 |

| Variant | abundance fitness |
| --- | --- |
| Q17N | -0.021 ± 0.072 |
| F59E | -0.944 ± 0.1 |
| F59R | -0.496 ± 0.038 |
| F59Y | -0.869 ± 0.17 |
| F59G | -0.95 ± 0.054 |
| F59N | -0.494 ± 0.084 |
| K56F | -0.865 ± 0.18 |
| K56C | -0.814 ± 0.11 |
| K56Y | -0.134 ± 0.065 |
| K56I | -0.702 ± 0.11 |
| K56L | -0.635 ± 0.054 |
| L71S | -0.805 ± 0.089 |
| L71F | -0.697 ± 0.15 |
| L71M | -0.176 ± 0.055 |
| L71G | -0.932 ± 0.072 |
| L71C | -0.834 ± 0.14 |
| W26N | -0.865 ± 0.096 |
| W26A | -0.845 ± 0.041 |
| W26S | -0.968 ± 0.05 |
| W26I | -1.1 ± 0.15 |
| H74N | -0.043 ± 0.062 |

| Variant | abundance fitness |
| --- | --- |
| H74L | -0.198 ± 0.039 |
| H74D | -0.214 ± 0.074 |
| H74T | -0.265 ± 0.053 |
| H74A | -0.135 ± 0.066 |
| T19N | -0.16 ± 0.084 |
| T19P | -0.936 ± 0.091 |
| T19Q | -0.228 ± 0.068 |
| I11M | -0.043 ± 0.05 |
| I11D | -0.647 ± 0.1 |
| I11L | -0.013 ± 0.026 |
| I11V | -0.09 ± 0.026 |
| V27W | -0.625 ± 0.06 |
| V27D | -0.887 ± 0.11 |
| V27K | -0.983 ± 0.39 |
| V27A | -0.2 ± 0.031 |
| V27Y | -0.992 ± 0.19 |
| V27G | -0.739 ± 0.037 |
| E5A | -0.062 ± 0.045 |
| E5L | -0.108 ± 0.044 |
| E5M | -0.018 ± 0.059 |
